Results on 2 molecules are retold here after patent US20210221899A1 (published 2021).

Assay [1] addresses T1, canine NGF (canine, UniProt Q29074 110-229 (pig entry), limits assumed).
T1 construct: The protein was secreted from CHO cells and purified; also called cNGF; canine β-NGF
T1 chain: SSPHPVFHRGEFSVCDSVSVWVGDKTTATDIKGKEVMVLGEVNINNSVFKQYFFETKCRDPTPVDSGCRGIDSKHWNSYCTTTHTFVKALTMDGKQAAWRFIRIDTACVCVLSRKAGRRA
The assay can be described thus: SPR (Biacore), NGF amine-coupled on chip, antibody injected. How it is done:
(§1) Antibody binding affinities of the antibodies against canine NGF were determined by surface plasmon resonance (SPR) on a Biacore system (Biocore Life Sciences (GE Healthcare), Uppsala, Sweden). Immobilization of canine and rat NGF were obtained by amine coupling […] NGF using N-hydroxysuccinimide (NHS)/1-Ethyl-3-(3-dimethylaminopropyl) carbodiimide (EDC) chemistry. Chips were quenched with ethanolamine and the affinity with which all candidate mAbs bound to the immobilized NGF was evaluated. Various concentrations of canine and felinized anti-NGF antibodies were injected over the NGF surfaces while the association of the antibody to the antigen and the dissociation of the formed complex were monitored in real time. Kinetic analysis was performed to obtain the equilibrium dissociation constant (KD).

In assay [2] the target is T2, rat NGF (rat, UniProt P25427 122-241).
T2 construct: also called rN
T2 sequence (P25427 122-241 limits assumed): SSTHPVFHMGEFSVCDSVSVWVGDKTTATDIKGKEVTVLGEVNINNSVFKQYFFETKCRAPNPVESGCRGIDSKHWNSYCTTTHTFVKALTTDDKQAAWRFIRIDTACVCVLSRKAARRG
The assay is described as above. How it is done: as §1

B1: ZTS-842 (antibody, V domains shown)
VH: EVQLVESGGDLVKPGGSLRLSCVASGFTFSTYGINWVRQAPGKGLQWVAYISSGGSSTYYADPVKGRFTISRDDAKNMLYLQMNSLRAEDTAIYYCAGSRYTYAYGGGYEFHFWGQGTLVTVSS
VL: QAVLNQPASVSGALGQKVTISCSGSTMDIDIFGVSWYQQLPGKAPKLLVDSDGDRPSGIPDRFSGSRSGNSGTLTITGLQAEDEADYHCQSGDSTLGALAIFGGGTHVTVL
notes: Canine mAb; also called 48L2; can48L2
In assay [1], B1 registered a Kd of 0.0217 nM, a koff of 2.27e-05 s⁻¹ and a kon of 703000 M⁻¹ s⁻¹. Further, in assay [2], the affinity, expressed as Kd, was 0.00325 nM; the koff amounted to 1.42e-06 s⁻¹; the kon was 573000 M⁻¹ s⁻¹.

B2: ZTS-205 (antibody, V domains shown)
VH: DVQLVESGGDLVKPGGSLRLTCVASGFTFSTYGINWVRQAPGKGLQWVAYISSGGSSTYYADPVKGRFTISRDNAKNMLYLQMNNLKTEDTATYYCAGSRYTYAYGGGYEFHFWGQGTLVTVSS
VL: QAVLNQPSSVSGALGQRVTISCSGSTMDIDIFGVSWYQQIPGMAPKTIIDSDGDRPSGVPDRFSGSKSGSTGTLTITGLQAEDEADYYCQSGDSTLGALAIFGGGTHVTVLG
notes: Felinized 48L2; also called fel48L2 1.1; fel48L21.1
Turning to B2, in assay [1], the affinity, expressed as Kd, was 0.111 nM; the koff worked out at 8.93e-05 s⁻¹; the kon came out at 426000 M⁻¹ s⁻¹. In assay [2], this molecule had a Kd of 0.277 nM, a koff of 0.00029 s⁻¹ and a kon of 672000 M⁻¹ s⁻¹.
